Experimental data published in article doi:10.1101/2023.08.30.554051.

Molecular target: human skeletal myosin IIa subfragment-1 (S1), oligonucleotide-labeled, on DNA origami-based thick filament (human)
Experiment: high-speed atomic force microscopy

duty ratio: 0.87 | mean detachment time: 0.17 s | time constant of the attachment time: 1.1 s | time constant of the detachment time (fast): 0.063 s | time constant of the detachment time (slow): 0.68 s
Substance: actin filament (from UniProt P68135 1-377) (natural protein)
